Laboratory results: patent US20260167738A1 (published 2026)

Experiments:
[1] = biological target: full-length human CD33 (CD33^FL) (UniProt P20138 18-364); test: SPR (Biacore)
CD33ΔE2 = test: SPR (Biacore)

full-length human CD33 (CD33^FL), sequence (P20138 18-364): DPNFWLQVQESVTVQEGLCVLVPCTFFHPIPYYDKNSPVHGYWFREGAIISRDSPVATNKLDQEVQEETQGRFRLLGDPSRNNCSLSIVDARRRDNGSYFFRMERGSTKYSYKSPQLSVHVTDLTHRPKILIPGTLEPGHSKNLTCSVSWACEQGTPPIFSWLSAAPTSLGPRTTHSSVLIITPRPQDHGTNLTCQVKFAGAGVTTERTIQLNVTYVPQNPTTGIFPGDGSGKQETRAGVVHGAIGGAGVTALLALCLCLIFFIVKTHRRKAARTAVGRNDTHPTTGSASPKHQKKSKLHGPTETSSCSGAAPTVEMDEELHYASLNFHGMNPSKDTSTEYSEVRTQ

| Binder | Kd [1] | Kd (CD33ΔE2) |
| --- | --- | --- |
| 2D3 antibody (antibody, V domains shown) VH: EVQLLESGGGLVQPGGSLSLSCAASGFTFSIYAMSWVRQAPGKGLEWVSAISDSGGTTYYADSVKGRFTISRDNSKNMLYLEMNSLRAEDTAIYYCAKRTRYFNGMDVWGQGTTVTVSS VL: EIVMTQSPATLSLSPGERATLSCRASQSGSSSFLSWYQQKPGQAPRLLIYGASTRATGIPARFSGSGSGTDFTLTISSLQPEDFAVYYCQQDYNLPFTFGPGTKVDIK | 4.89 nM |  |
| 1H10 (antibody, V domains shown) VH: QVQLVQSGAEVKKPGASVKVSCKGSGYIFTSYDMHWVRQAPGQGLEWMGIIDPSGGSTSYAQKFQGRVTMTRDTSMSTVYMELSSLRSEDTAVYYCTRDYSWSYFDYWGQGTLVTVSS VL: AIQMTQSPSSLSASVGDRVTITCRASQGIRIYLGWYQQKPGKAPKLLIYATSSLQSGVPSRFSGSGSGTDFTLTISSLQPEDFATYYCLQDYNYPWTFGQGTKVEIK |  | 0.136 nM |
| 1H10 antibody (antibody, V domains shown) VH: QVQLVQSGAEVKKPGASVKVSCKGSGYIFTSYDMHWVRQAPGQGLEWMGIIDPSGGSTSYAQKFQGRVTMTRDTSMSTVYMELSSLRSEDTAVYYCTRDYSWSYFDYWGQGTLVTVSS VL: AIQMTQSPSSLSASVGDRVTITCRASQGIRIYLGWYQQKPGKAPKLLIYATSSLQSGVPSRFSGSGSGTDFTLTISSLQPEDFATYYCLQDYNYPWTFGQGTKVEIK | 3.71 nM |  |
